Measured values as given in publication PMC8988006, “Structural and biochemical characterization of the prenylated flavin mononucleotide-dependent indole-3-carboxylic acid decarboxylase” (The Journal of Biological Chemistry, 2022).
Numbering of substitutions follows the chain as printed.

Key:
[1] = molecular target: indole-3-carboxylate decarboxylase from Arthrobacter nicotianae (Arthrobacter nicotianae); experiment: crystal structure; AnInD at ca 15 mg/ml, sitting drop vapor diffusion, PACT screen condition G5, 20 °C; crystals soaked with prFMN; space group P2_(1); whole hexamer in the asymmetric unit
[2] = molecular target: indole-3-carboxylate decarboxylase from Arthrobacter nicotianae (Arthrobacter nicotianae); experiment: SAXS; HPLC SAXS (Shodex KW-403 column, 0.15 ml/min) on beamline B21, Diamond Light Source; ab initio envelope (DAMMIN/DAMAVER) with the hexamer crystal structure superimposed
[3] = molecular target: T1, AnInD (indole-3-carboxylic acid decarboxylase) (Glutamicibacter nicotianae, UniProt Z9P359VB74, D169V); experiment: end point HPLC decarboxylation assay; type: biochemical; conditions: prFMN-reconstituted; 50 mM potassium phosphate pH 6.5, 10 mM I3C, 2 μM enzyme
T1 construct: His6-tagged (C-terminal in pET30a or N-terminal in pET28a), E. coli BL21(DE3), Ni-NTA, ~50 kDa by SDS-PAGE, hexamer, reconstituted with prFMN and Mn2+
T1 sequence (Z9P359VB74 2-461 D169V): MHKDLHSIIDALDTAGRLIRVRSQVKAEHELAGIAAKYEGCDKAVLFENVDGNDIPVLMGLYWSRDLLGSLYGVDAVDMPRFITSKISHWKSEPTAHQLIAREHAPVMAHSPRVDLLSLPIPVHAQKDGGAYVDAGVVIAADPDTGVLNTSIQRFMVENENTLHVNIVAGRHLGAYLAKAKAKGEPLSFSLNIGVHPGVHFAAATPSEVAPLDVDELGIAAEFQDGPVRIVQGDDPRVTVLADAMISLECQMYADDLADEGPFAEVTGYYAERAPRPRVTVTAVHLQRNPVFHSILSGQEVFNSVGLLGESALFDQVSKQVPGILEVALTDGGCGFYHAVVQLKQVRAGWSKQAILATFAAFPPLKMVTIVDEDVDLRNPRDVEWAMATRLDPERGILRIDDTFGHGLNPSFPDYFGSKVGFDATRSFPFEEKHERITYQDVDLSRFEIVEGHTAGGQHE

[4] = molecular target: T2, AnInD (indole-3-carboxylic acid decarboxylase) (Glutamicibacter nicotianae, UniProt Z9P359VB74, D169L); experiment: end point HPLC decarboxylation assay; type: biochemical; conditions: prFMN-reconstituted; 50 mM potassium phosphate pH 6.5, 10 mM I3C, 2 μM enzyme
T2 construct: His6-tagged (C-terminal in pET30a or N-terminal in pET28a), E. coli BL21(DE3), Ni-NTA, ~50 kDa by SDS-PAGE, hexamer, reconstituted with prFMN and Mn2+
T2 sequence (Z9P359VB74 2-461 D169L): T1 sequence (Z9P359VB74 2-461 D169V) with V168L

[5] = molecular target: T3, AnInD (indole-3-carboxylic acid decarboxylase) (Glutamicibacter nicotianae, UniProt Z9P359VB74, D169A); experiment: end point HPLC decarboxylation assay; type: biochemical; conditions: prFMN-reconstituted; 50 mM potassium phosphate pH 6.5, 10 mM I3C, 2 μM enzyme
T3 construct: His6-tagged (C-terminal in pET30a or N-terminal in pET28a), E. coli BL21(DE3), Ni-NTA, ~50 kDa by SDS-PAGE, hexamer, reconstituted with prFMN and Mn2+
T3 sequence (Z9P359VB74 2-461 D169A): T1 sequence (Z9P359VB74 2-461 D169V) with V168A

[6] = molecular target: T4, SrCAR (Seginiliparous rugosus carboxylic acid reductase) (Segniliparus rugosus, UniProt E5XP76); experiment: one-pot cascade with AnInD, HPLC; type: biochemical; conditions: I3C formed in situ from indole + NaHCO3 by AnInD; ATP, NADPH, Mn2+, Mg2+; potassium phosphate, 30 °C
T4 construct: gene car
T4 sequence (E5XP76 1-1188): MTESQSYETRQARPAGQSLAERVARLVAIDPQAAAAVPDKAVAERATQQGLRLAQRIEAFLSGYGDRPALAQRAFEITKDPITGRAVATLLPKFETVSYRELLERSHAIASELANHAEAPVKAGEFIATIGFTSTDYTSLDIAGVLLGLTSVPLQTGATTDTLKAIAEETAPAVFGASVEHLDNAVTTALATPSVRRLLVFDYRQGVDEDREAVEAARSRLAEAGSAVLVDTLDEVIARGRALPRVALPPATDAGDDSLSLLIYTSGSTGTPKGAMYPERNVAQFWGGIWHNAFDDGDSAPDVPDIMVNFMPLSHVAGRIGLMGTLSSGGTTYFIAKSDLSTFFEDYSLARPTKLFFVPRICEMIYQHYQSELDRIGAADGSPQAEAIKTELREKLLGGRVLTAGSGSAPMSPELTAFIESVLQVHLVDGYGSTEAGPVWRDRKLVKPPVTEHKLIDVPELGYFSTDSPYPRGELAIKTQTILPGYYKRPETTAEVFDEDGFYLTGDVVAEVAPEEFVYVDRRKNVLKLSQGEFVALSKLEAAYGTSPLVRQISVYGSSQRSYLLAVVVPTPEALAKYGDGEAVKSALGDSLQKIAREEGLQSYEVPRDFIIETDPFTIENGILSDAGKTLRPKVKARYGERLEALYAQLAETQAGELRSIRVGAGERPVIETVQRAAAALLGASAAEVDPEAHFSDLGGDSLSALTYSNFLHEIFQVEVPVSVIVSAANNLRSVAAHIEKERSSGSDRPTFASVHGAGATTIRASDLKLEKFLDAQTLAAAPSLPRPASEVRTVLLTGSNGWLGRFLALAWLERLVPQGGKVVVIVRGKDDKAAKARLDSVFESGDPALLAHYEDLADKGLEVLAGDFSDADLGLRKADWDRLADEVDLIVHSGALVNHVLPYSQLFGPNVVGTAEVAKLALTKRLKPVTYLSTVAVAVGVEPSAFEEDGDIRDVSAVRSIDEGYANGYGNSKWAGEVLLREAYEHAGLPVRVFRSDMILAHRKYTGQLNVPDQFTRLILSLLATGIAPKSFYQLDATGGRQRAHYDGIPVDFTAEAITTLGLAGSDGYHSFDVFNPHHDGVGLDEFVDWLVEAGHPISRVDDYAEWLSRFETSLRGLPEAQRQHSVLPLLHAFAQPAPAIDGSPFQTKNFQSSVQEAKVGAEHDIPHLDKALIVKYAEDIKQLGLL

O=C(O)c1c[nH]c2ccccc12 = system: T5, O=C(O)c1c[nH]c2ccccc12; experiment: purified protein; type: biochemical, Glutamicibacter nicotianae; conditions: prFMN-reconstituted enzyme, Mn2+, 50 mM potassium phosphate pH 6.5, 50 mM KCl, room temperature, apparent because active enzyme (prFMN) content is unknown
T5 construct: His6-tagged (C-terminal in pET30a or N-terminal in pET28a), E. coli BL21(DE3), Ni-NTA, ~50 kDa by SDS-PAGE, hexamer, reconstituted with prFMN and Mn2+

## indole-3-carboxylate decarboxylase from Arthrobacter nicotianae (enzyme)
[1]
  stoichiometry N: 6
[2]
  stoichiometry N: 6

## O=C(O)c1c[nH]c2ccccc12 [I3C, indole-3-carboxylic acid]
[3]
  activity: All AnInD D169X variants were found to be severely affected in activity
[4]
  activity: All AnInD D169X variants were found to be severely affected in activity
[5]
  activity: All AnInD D169X variants were found to be severely affected in activity
[6]
  one-pot cascade with AnInD, HPLC: These assays revealed the formation/production of indole-3-carboxyaldehyde

## AnInD (indole-3-carboxylic acid decarboxylase) (Glutamicibacter nicotianae)
O=C(O)c1c[nH]c2ccccc12
  Km: 790 µM
  kcat: 4.4 (±0.3) s^−1
